# The nanobody polyreactivity screen of Harvey et al. (2022)
# Assay: yeast display, Sf9 membrane polyspecificity reagent, FACS + sequencing; frameworks hold sequencing errors
# Summary of the method: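 Synthetic nanobody libraries on Saccharomyces cerevisiae BJ5465 were galactose-induced for 36–48 hours, stained 1 hour at 4 °C with 10% biotinylated, detergent-solubilized Sf9 membrane reagent and enriched on streptavidin microbeads. FACS then separated cells into low and high (top ~1%) gates by anti-HA (expression) and streptavidin (reagent binding) fluorescence. Genes were colony-PCR amplified, MiSeq 2 × 250 sequenced and CDR-length filtered. A clone's polyreactivity label is that of its gate of origin.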
row,Sequence,polyreactivity (PSR sort gate)
1,QVQLVESGGGLVQAGGSLRLSCAASGRTFSYYAMGWYRQAPGKERELVAAISRAGRTNYADSVKGRFTISRDNAKNTVYLQMHSLKPEDTAVYYCAADLAYGRPFVSYRTRDWGQGTQVTVSS,high polyreactivity
2,QVQLVESGGGLVQAGGSLRLSCAASGRTFSYYAMGWYRQAPGKERELVAAITSRGSSTYYADSVKGRFTISRDNAKNTVYLQMNSLKPEDTAVYYCAKVRPYLDTNEYYYWGQGTQVTVSS,high polyreactivity
3,QVQLVESGGGLVQAGGSLRLSCAASGRTFSYYAMGWYRQAPGKERELVATIRFSGGGTYYADSVKGRFTISRDNAKNTVYLQMNSLKPEDTAVYYCNADSIDPFLYDYWGQGTQVTVSS,low polyreactivity
4,QVQLVESGGGLVQAGGSLRLSCAASGRTFSYYTMVWYRQAPGKERELVARISNRGTNTYYADSVKGRFTISRDNAKNTVYLQMNSLKPEDTAVYYCAKYYYTSIVGYDSWGQGSQVTVSS,low polyreactivity
5,QVQLVESGGGLVQAGGSLRLSCAASGRTFTANAMGWYRQAPGKERELVAGITSRGGGTYYADSVKGRFTISRDNAKNTVYLQMNSLKPEDTAVYYCAAPYNGGGVHSYWEYDYWGQGTQVSVSS,high polyreactivity
6,QVQLVESGGGLVQAGGSLRLSCAASGRTFTAYTMGWYRQAPGKERELVASITWSGGSTYYADSVKGRFTISRDNAKNTVYLQMNSLKPEDTAVYYCATAFDYGQFQLSSEFNYWGQGTQVTVSS,low polyreactivity
7,QVQLVESGGGLVQAGGSLRLSCAASGRTFTDNAMGWYRQAPGKERELVAAISRRGGSTYYADSVKGRFTISRDNAKNTVYLQMNSLKPEVTAVYYCNTDEIAGGFPYRYYLYYGYDYWGQGTQVTVSS,low polyreactivity
8,QVQLVESGGGLVQAGGSLRLSCAASGRTFTEYAMGWYRQAPGKERELVAGIDSGSGSTYYADSVKGRFTISRDNAKNTVYLQMNSLKPEDTAVYYCAADHAYYRYDYWGQGTQVTVSS,low polyreactivity
9,QVQLVESGGGLVQAGGSLRLSCAASGRTFTGNAMGWYRQAPGKERELVAAISFSGASTYYADSVKGRFTISRDNAKNTVYLQMNSLKPEDTAVYYCNADSRYRSFDYWGQGTQVTVSS,high polyreactivity
10,QVQLVESGGGLVQAGGSLRLSCAASGRTFTGNAMGWYRQAPGKERELVAAISQRGGRTNYADSVKGRFTISRDNAKNTVYLQMHSLKPEDTAVYYCAADQSYPKRLPSFEYWGQGTQVTVSS,low polyreactivity
11,QVQLVESGGGLVQAGGSLRLSCAASGRTFTGNVMGWYRQAPGKERELVAAISRRGGITYYADSVKGRFTISRDNAKNTVYLQMNSLKPEDTAVYYCDAYSWRRQGDHYDYWGQGTQVTVSS,high polyreactivity
12,QVQLVESGGGLVQAGGSLRLSCAASGRTFTGYAMGWYRQAPGKERELVAAISASGGSTYYADSVKGRFTISRDNAKNTVYLQMNSLKPEDTAVYYCAAESWYSVLWEEGYDYWGQGTQVTVSS,low polyreactivity
13,QVQLVESGGGLVQAGGSLRLSCAASGRTFTINAMGWYRQAPGKERELVATIRSSGGSTSYADSVKGRFTISRDNAKNTVYLQMNSLKPEDTAVYYCAADGWGRYDYWGQGTQVTVSS,low polyreactivity
14,QVQLVESGGGLVQAGGSLRLSCAASGRTFTKYAMGWYRQAPGKERELVAGITRRGGNTYYADSVKGRFTISRDNAKNTVYLQMNSLKPEDTAVYYCAATLFYTGSRFRYYYWGQGTQVTVSS,high polyreactivity
15,QVQLVESGGGLVQAGGSLRLSCAASGRTFTNYAMRWYIPAPGKERELVAAAITVGGGRTYYADSVKGRFTISRENAKNTVYLQMNSLKPEDTAVYYCATDFGTYWYEYWGQGTQVTVSS,high polyreactivity
16,QVQLVESGGGLVQAGGSLRLSCAASGRTFTPNAMGWYRQAPGKEREFVAAITYSGGSTRYADSVKGRFTISRDNAKNTVYLQMNSLKPEDTAVYYCAKGYFYYVYTEDDGYWGQGTQVTVSS,low polyreactivity

row,Sequence,polyreactivity (PSR sort gate)
1,QVQLVESGGGLVQAGGSLRLSCAASGRTFTPNGMGWYRQAPGKERELVAAITYGGGITDYADSVKGRFTTSRDNAKNTVYLQMNSLKPEDTAVYYCAATTLSFEGGKYWSKYDYWGQGTQVTVSS,low polyreactivity
2,QVQLVESGGGLVQAGGSLRLSCAASGRTFTRNAMGWYRQAPGKERELVAAISAGGTRTYYADSVKGRFTISRDNAKNTVYLQMNSLIPEDTAVYYCAKPIAPAPNAYPAYDYWGQGTQVTVSS,high polyreactivity
3,QVQLVESGGGLVQAGGSLRLSCAASGRTFTRYAMGWYRQAPGKEREFVAAITTRGGSTYYADSVKGRFTISRDNAKNTVYLQMNSLKPEDTAVYYCAADYYYVQVLYDLGLDYWGQGTQVTVSS,high polyreactivity
4,QVQLVESGGGLVQAGGSLRLSCAASGRTFTRYAMGWYRQAPGKERELVAAISLSSGRTYYADSVKGRFTISRDNAKNTVYLQMNSLKPEDTAVYYCAVRSYVVPGKGFGYWGQGTQVTVSS,high polyreactivity
5,QVQLVESGGGLVQAGGSLRLSCAASGRTFTRYTMGWYRQAPGKERELVAAISSGGSTTYADSVKGRFTISRDNAKNTVYLQMNSLKPEDTAVYYCAAGLVYRGYRRDYWGQGTQVTVSS,low polyreactivity
6,QVQLVESGGGLVQAGGSLRLSCAASGRTFTRYTMGWYRQAPGKERELVAGITRSGGSTYYADSVKGRFTISRDNAKNTVYLQMNSLKPEDTAVYYCAARLSGRYDSQDNYWGQGTQVTVSS,high polyreactivity
7,QVQLVESGGGLVQAGGSLRLSCAASGRTFTSNAMGWYRQAPGKEREFVAAITRSTGSTNYADSVKGRFTISRDNAKNTVYLQMNSLKPEDTAVYYCNAYLYYKGRYSRQYYYWGQGTQVTVSS,high polyreactivity
8,QVQLVESGGGLVQAGGSLRLSCAASGRTFTSNAMGWYRQAPGKESELVAVITTSGDRTFYADSVKGRFTISRDNAKNTVYLQMNSLKPEDTAVYYCAADVRLTRGFDYWVQGTQVTVSS,high polyreactivity
9,QVQLVESGGGLVQAGGSLRLSCAASGRTFTSYAMGSYRQAPGKERELVAVITRRGGSTSYADSVKGRFTISRDNAKNTVYLQMNSLKPEDTAVYYCAAKRTWPDVNYYYWGQGTQVTVSS,high polyreactivity
10,QVQLVESGGGLVQAGGSLRLSCAASGRTFTSYAMGWYRQAPGKERELVATISTGGSTNYADSVKGRFTISRDNAKNTVYFQMNSLKPEDTAVYYCAAQVDGKRQYYRYDYWGQGTQVTVSS,low polyreactivity
11,QVQLVESGGGLVQAGGSLRLSCAASGRTFTSYAMGWYRQAPGKERELVAVITWRGVSTYYADSVKGRFTISRDNAKNTVYLQMNSLKPEDTAVYYCAARRPGYYPYKGFDYWGQGTQVTVSS,high polyreactivity
12,QVQLVESGGGLVQAGGSLRLSCAASGRTFTSYVMGWYIQAPGKERELVAAITRGGRSYYADSVKGRFTISRDNAKKTVYLQMNSLTPEDTAVYYCGARYSVSYNYWGQGTQVTVSS,high polyreactivity
13,QVQLVESGGGLVQAGGSLRLSCAASGRTFTTNAMGWYRQAPGKERELVAAISRRGGSTYYADSVKGRFTISRDNAKNTVYLQMNSLKPEDTAVYYCYAHLWIRGYDYWGQGTQVTVSS,high polyreactivity
14,QVQLVESGGGLVQAGGSLRLSCAASGRTFTTNAMGWYRQAPGKERELVAAITIGDDTYYADSVKGRFTISRDNAKNTVYLQMNSLKPEDTAVYYCNVDGRSDGDDYWGQGTQVTVSS,low polyreactivity
15,QVQLVESGGGLVQAGGSLRLSCAASGRTFTTYAMGWSRQAPGKERELVAAISSGGSTHYADSVKGRFTISRDNAKYTVYLQMNSLKPEDTAVYYCAADKYYYRTSGQEMDYWGQGTQVTVSS,high polyreactivity
